Here are results for 85 sequences from the Immune Epitope Database (IEDB).

A value given as a limit tells only on which side of the number the result lay.

The first assay concerns the target HLA-A*02:01. Briefly: IEDB peptide-MHC binding, purified MHC/competitive/radioactivity; filed as Kd, often an IC50 or EC50 that approximates it; ≥ and ≤ were set here for values at or beyond the usual limits of such assays. The settings on record: source organism: Trypanosoma cruzi.
For the sequence AACIVGCENV, the Kd is at least 28200 nM.

AIVFDHYDV: the Kd was at least 43400 nM.

With AIVTCGAETL, the dissociation constant (Kd) is at least 28200 nM.

For the sequence ALKNNGKVV, the Kd was at least 43400 nM.

For CLLTTSGVSA, the Kd was determined as 10400 nM.

As to FANSKFTLVA, the Kd is at least 43400 nM.

Consider FTDNKSCVSL, for which the Kd is 14400 nM.

Regarding GLTFKGPGA, the Kd was at least 43400 nM.

As to GVQGGFVSA, the dissociation constant Kd was at least 43400 nM.

For IVQENNGAV, the Kd was at least 28200 nM.

On to KALETDVPA, for which the Kd is at least 43400 nM.

As for LAAVLVVMA, the Kd is at least 22800 nM.

As to LLGLWGTAA, the Kd amounted to 6260 nM.

Regarding LLTTSGVSA, the Kd is at least 28200 nM.

Turning to LLVGYNDSA, the Kd was at least 28200 nM.

As to LLVGYNDSAA, the Kd was at least 28200 nM.

As for LTFKGPGAWA, the dissociation constant Kd is at least 43400 nM.

LVQAFHSFRA: the Kd was 6920 nM.

For LVYVNGVVV, the Kd turned out to be 9070 nM.

In the case of MACLVPAAT, the Kd is at least 26800 nM.

MALIGDSTV: the Kd came to 17500 nM.

For the sequence MTEQTDEAV, the Kd was at least 43400 nM.

As for MTYTGGVMT, the Kd is at least 28200 nM.

For NVLLYNRLL, the Kd came out at 6030 nM.

For QMSCTDAACI, the Kd was at least 28200 nM.

For the sequence QVHSSLSVV, the Kd is at least 43400 nM.

With RIILNGSLL, the dissociation constant Kd is at least 43400 nM.

SLSVVRPMT: the Kd amounted to 8560 nM.

STHCSGPSV: the Kd was at least 28200 nM.

As for STSRVPYDI, the Kd is at least 43400 nM.

Take SVPLNQCNWL: the Kd is at least 28200 nM.

With VAVNGPVAV, the dissociation constant (Kd) is at least 28200 nM.

Take VLLLVVVMM: the Kd was at least 27900 nM.

In the case of VLVVMACLV, the Kd worked out at 7350 nM.

Take VTLPTGQCL: the Kd is at least 28200 nM.

As to WADEYLCVNA, the Kd was at least 43400 nM.

Consider WAFSAIGNV, for which the Kd was 16700 nM.

Regarding WIVQENNGA, the equilibrium dissociation constant (Kd) stood at 12800 nM.

Consider WMTYTGGVMT, for which the Kd is at least 28200 nM.

YATVEVPSL: the Kd was determined as 5500 nM.

For the next assay, the target named is HLA-A*02:01. As to the kind of experiment: IEDB peptide-MHC binding, purified MHC/competitive/radioactivity; ≥ and ≤ were set here for values at or beyond the usual limits of such assays. The settings on record: source organism: Trypanosoma cruzi.
On to AANPHATFGV, for which the IC50 stood at 2950 nM.

Regarding AASTLLYATV, the IC50 came to 2980 nM.

On to ALSLAAVLV, for which the IC50 turned out to be 112 nM.

For the sequence ALSLAAVLVV, the IC50 was 324 nM.

Regarding AMALIGDSTV, the IC50 was 148 nM.

For the sequence AVLVVMACL, the IC50 amounted to 4150 nM.

For CLVPAATASL, the IC50 was determined as 2540 nM.

For the sequence FLAGHPLTNL, the half-maximal inhibitory concentration (IC50) is 14 nM.

As to FLARLHAAA, the IC50 amounted to 48 nM.

With FLGGGGAGI, the IC50 stood at 3580 nM.

As for FTLVAPVSI, the IC50 was determined as 363 nM.

On to FTSAVLLLV, for which the IC50 turned out to be 10 nM.

In the case of FTSAVLLLVV, the IC50 came out at 918 nM.

On to GLLLLGLWGT, for which the IC50 stood at 62 nM.

For GLMNNAFEWI, the half-maximal inhibitory concentration (IC50) came to 175 nM.

With IILNGSLLT, the IC50 was found to be 4330 nM.

In the case of KTWADEYLCV, the IC50 was determined as 444 nM.

With KVVSLVILA, the IC50 stood at 409 nM.

Turning to LLLGLWGTA, the IC50 was 944 nM.

On to LLLGLWGTAA, for which the IC50 worked out at 241 nM.

LLLLGLWGTA: the IC50 came out at 888 nM.

On to LLTTSGVSAI, for which the IC50 came out at 1110 nM.

As to LMNNAFEWI, the IC50 worked out at 395 nM.

For LMNNAFEWIV, the IC50 turned out to be 56 nM.

For the sequence LTNLSEQMLV, the IC50 worked out at 3190 nM.

For the sequence MMSCSSEAT, the half-inhibitory concentration (IC50) was determined as 1170 nM.

Regarding MTSCVSEQL, the IC50 was determined as 348 nM.

QLDHGVLLV: the IC50 was found to be 673 nM.

Turning to QMDYSNGLFV, the IC50 was 61 nM.

In the case of RALSLAAVL, the IC50 is 3880 nM.

RLHLWLSDM: the half-inhibitory concentration (IC50) worked out at 4910 nM.

For the sequence RLLSPTTIV, the half-inhibitory concentration (IC50) was 290 nM.

Take RVFGLLLLGL: the IC50 worked out at 355 nM.

Regarding RVFTSAVLL, the IC50 was 661 nM.

Consider SIHVTVSNV, for which the IC50 stood at 3610 nM.

As for SLVYVNGVVV, the IC50 came out at 2880 nM.

Regarding SMNATLVQA, the IC50 was found to be 267 nM.

On to SVFRENLFL, for which the IC50 came out at 59 nM.

In the case of TLLYATVEV, the IC50 is 68 nM.

With VMACLVPAA, the IC50 came to 10 nM.

VMMSCSSEA: the IC50 is 55 nM.

Regarding VVMACLVPAA, the IC50 amounted to 98 nM.

Consider WIIKNSWTA, for which the 50% inhibitory concentration (IC50) worked out at 186 nM.

Turning to WLSDCGEAL, the concentration for half-maximal inhibition (IC50) is 228 nM.

In the case of YVNGVVVATV, the IC50 came out at 466 nM.

For orientation: Kd means the constant that tells how readily two partners part at equilibrium. Usually IC50 stands for the concentration that inhibits the measured activity by half.
